Experimental data published in publication doi:10.1101/2024.07.27.605439.

What was measured:
[1] = biological target: Gαi1-H213Q single mutant (human) (UniProt P63096)
[2] = biological target: Gαi1-V185F single mutant (human) (UniProt P63096)
[3] = biological target: Gαi1-V185F/H213Q double mutant (human) (UniProt P63096)
[4] = biological target: Gαs-F208V/D229S/Q236H triple mutant (human) (UniProt P63092)
[5] = biological target: Gαs-D229S single mutant (human) (UniProt P63092)

EC50 of RGS16 GAP activity (dose response) towards Gαi1-H213Q [1]: 7 nM | EC50 of RGS16 GAP activity (dose response) towards Gαi1-V185F [2]: 4 nM | EC50 of RGS16 GAP activity (dose response) towards Gαi1-V185F/H213Q [3]: 45 nM | EC50 of RGS16 GAP activity (dose response) towards Gαs-F208V/D229S/Q236H [4]: 9 nM | EC50 of RGS16 GAP activity (dose response) towards Gαs-D229S [5]: 800 nM
Substance: RGS domain of human RGS16 (residue 86–205) (domain or fragment)
